The record followed here is patent US20260193293A1, “PEPTIDES CAPABLE OF INHIBITING PROTEIN-PROTEIN INTERACTIONS AT GABAB1A SUBUNIT AND USES THEREOF” (UNIVERSITY OF COPENHAGEN, priority 2022, published 2026).

Non-standard residues stand in square brackets, D forms with d. Sar = CNCC(=O)O

B1: hybrid peptide X (peptide)
peptide: Ac-EDDSDVWWGPTGDED-NH2
B2: …(N-Me-G)TGDED (peptide)
peptide: Ac-EDDSDVWWYG[Sar]TGDED-NH2
SMILES: CC(=O)N[C@@H](CCC(=O)O)C(=O)N[C@@H](CC(=O)O)C(=O)N[C@@H](CC(=O)O)C(=O)N[C@@H](CO)C(=O)N[C@@H](CC(=O)O)C(=O)N[C@H](C(=O)N[C@@H](Cc1c[nH]c2ccccc12)C(=O)N[C@@H](Cc1c[nH]c2ccccc12)C(=O)N[C@@H](Cc1ccc(O)cc1)C(=O)NCC(=O)N(C)CC(=O)N[C@H](C(=O)NCC(=O)N[C@@H](CC(=O)O)C(=O)N[C@@H](CCC(=O)O)C(=O)N[C@@H](CC(=O)O)C(N)=O)[C@@H](C)O)C(C)C
B3: … (SEQ ID NO: 341) (peptide)
peptide: Ac-DAIVWGPTVSRED-NH2
B4: peptide 19 (peptide)
peptide: Ac-EDDYIDWGPTSDDD-NH2
B5: …(N-Me-G)ADTD (peptide)
peptide: Ac-EDDSDVWWY[Sar]ADTD-NH2
SMILES: CC(=O)N[C@@H](CCC(=O)O)C(=O)N[C@@H](CC(=O)O)C(=O)N[C@@H](CC(=O)O)C(=O)N[C@@H](CO)C(=O)N[C@@H](CC(=O)O)C(=O)N[C@H](C(=O)N[C@@H](Cc1c[nH]c2ccccc12)C(=O)N[C@@H](Cc1c[nH]c2ccccc12)C(=O)N[C@@H](Cc1ccc(O)cc1)C(=O)N(C)CC(=O)N[C@@H](C)C(=O)N[C@@H](CC(=O)O)C(=O)N[C@H](C(=O)N[C@@H](CC(=O)O)C(N)=O)[C@@H](C)O)C(C)C
B6: …(N-Me-G)ADTD (peptide)
peptide: Ac-EDDSDVWWYG[Sar]ADTD-NH2
SMILES: CC(=O)N[C@@H](CCC(=O)O)C(=O)N[C@@H](CC(=O)O)C(=O)N[C@@H](CC(=O)O)C(=O)N[C@@H](CO)C(=O)N[C@@H](CC(=O)O)C(=O)N[C@H](C(=O)N[C@@H](Cc1c[nH]c2ccccc12)C(=O)N[C@@H](Cc1c[nH]c2ccccc12)C(=O)N[C@@H](Cc1ccc(O)cc1)C(=O)NCC(=O)N(C)CC(=O)N[C@@H](C)C(=O)N[C@@H](CC(=O)O)C(=O)N[C@H](C(=O)N[C@@H](CC(=O)O)C(N)=O)[C@@H](C)O)C(C)C
B7: … (peptide)
peptide: Ac-ETEFIAWYPADTD-NH2
B8: R8-17 (peptide)
peptide: Ac-RRRRRRRREDDDWIDWGPTSDDD-NH2
B9: 16-R8 (peptide)
peptide: Ac-EDDDWIDWYDSDDDRRRRRRRR-NH2
B10: …(N-Me-G)ADTD (peptide)
peptide: Ac-EDDSWVWWG[Sar]ADTD-NH2
SMILES: CC(=O)N[C@@H](CCC(=O)O)C(=O)N[C@@H](CC(=O)O)C(=O)N[C@@H](CC(=O)O)C(=O)N[C@@H](CO)C(=O)N[C@@H](Cc1c[nH]c2ccccc12)C(=O)N[C@H](C(=O)N[C@@H](Cc1c[nH]c2ccccc12)C(=O)N[C@@H](Cc1c[nH]c2ccccc12)C(=O)NCC(=O)N(C)CC(=O)N[C@@H](C)C(=O)N[C@@H](CC(=O)O)C(=O)N[C@H](C(=O)N[C@@H](CC(=O)O)C(N)=O)[C@@H](C)O)C(C)C
B11: peptide 29 (peptide)
peptide: Ac-EDDSWIDWGPTGDED-NH2
B12: … (peptide)
peptide: Ac-PWYIVWGPTVSRED-NH2
B13: … (peptide)
peptide: Ac-PWFIVWGPTVSRED-NH2
B14: … (peptide)
peptide: Ac-PWAIVWGPTVSDED-NH2
B15: peptide 28 (peptide)
peptide: Ac-EDDSWIWWYGADTD-NH2
B16: … (peptide)
peptide: Ac-PSAIVWGPTVSRED-NH2
B17: … (peptide)
peptide: Ac-PWAIVWGPTSSRED-NH2
B18: peptide 27 (peptide)
peptide: Ac-EDDSWIWWGPTGDED-NH2
B19: … (peptide)
peptide: Ac-PHAIVWGPTVSRED-NH2
B20: … (peptide)
peptide: Ac-VWAIVWGPTVSRED-NH2
B21: … (SEQ ID NO: 342) (peptide)
peptide: Ac-DAIVWGPTVSRED-NH2
B22: … (peptide)
peptide: Ac-ETEFIAWGPTVSRED-NH2
B23: …(N-Me-G)TGDED (peptide)
peptide: Ac-EDDSDVWWY[Sar]TGDED-NH2
SMILES: CC(=O)N[C@@H](CCC(=O)O)C(=O)N[C@@H](CC(=O)O)C(=O)N[C@@H](CC(=O)O)C(=O)N[C@@H](CO)C(=O)N[C@@H](CC(=O)O)C(=O)N[C@H](C(=O)N[C@@H](Cc1c[nH]c2ccccc12)C(=O)N[C@@H](Cc1c[nH]c2ccccc12)C(=O)N[C@@H](Cc1ccc(O)cc1)C(=O)N(C)CC(=O)N[C@H](C(=O)NCC(=O)N[C@@H](CC(=O)O)C(=O)N[C@@H](CCC(=O)O)C(=O)N[C@@H](CC(=O)O)C(N)=O)[C@@H](C)O)C(C)C
B24: peptide 17 (peptide)
peptide: Ac-EDDDWIDWGPTSDDD-NH2
B25: … (peptide)
peptide: Ac-DWAIVWGPTVSRED-NH2
B26: … (peptide)
peptide: Ac-PWAIVWGPTGDED-NH2
B27: hybrid peptide Y (peptide)
peptide: Ac-ETEFIAWGGADTD-NH2
B28: … (peptide)
peptide: Ac-ETEFIAWYGPADTD-NH2
B29: … (peptide)
peptide: Ac-PWAIDWGPTVSRED-NH2
B30: peptide 16 (peptide)
peptide: Ac-EDDDWIDWYDSDDD-NH2
B31: peptide 30 (peptide)
peptide: Ac-EDDSWIDWYGADTD-NH2
B32: … (peptide)
peptide: Ac-PWAIVWGPTVDRED-NH2
B33: … (peptide)
peptide: Ac-FIVWGPTVSRED-NH2
B34: peptide 37 (peptide)
peptide: Ac-ETEFIAWYGADTD-NH2
B35: … (peptide)
peptide: Ac-PFAIVWGPTVSRED-NH2
B36: … (peptide)
peptide: Ac-ETEFIAWYGPTGDED-NH2
B37: R8-16 (peptide)
peptide: Ac-RRRRRRRREDDDWIDWYDSDDD-NH2
B38: peptide 38 (peptide)
peptide: Ac-ETEFIAWG[Sar]TGDED-NH2
SMILES: CC[C@H](C)[C@H](NC(=O)[C@H](Cc1ccccc1)NC(=O)[C@H](CCC(=O)O)NC(=O)[C@@H](NC(=O)[C@H](CCC(=O)O)NC(C)=O)[C@@H](C)O)C(=O)N[C@@H](C)C(=O)N[C@@H](Cc1c[nH]c2ccccc12)C(=O)NCC(=O)N(C)CC(=O)N[C@H](C(=O)NCC(=O)N[C@@H](CC(=O)O)C(=O)N[C@@H](CCC(=O)O)C(=O)N[C@@H](CC(=O)O)C(N)=O)[C@@H](C)O
B39: …* (peptide)
peptide: Ac-AIVWGPTVSRED-NH2
modifications: also: asterisk not explained
B40: … (peptide)
peptide: Ac-AIVWGPTVSRED-NH2
B41: … (peptide)
peptide: Ac-PWAIVWGPTDSRED-NH2
B42: … (peptide)
peptide: Ac-PDAIVWGPTVSRED-NH2
B43: … (peptide)
peptide: Ac-PWFIVWGPTVSDED-NH2
B44: … (peptide)
peptide: Ac-PWVIVWGPTVSRED-NH2
B45: peptide 18 (peptide)
peptide: Ac-EDDYIDWYDSDDD-NH2
B46: …* (peptide)
peptide: Ac-FIVWGPTVSRED-NH2
modifications: not fully specified; printed as FIVWGPTVSRED*

In the test the target is Sushi domains (SD1/2) protein of GABAB1a (GB1a). As to the kind of experiment: FP competition vs TAMRA AJAP-1probe.
Sushi domains (SD1/2) protein of GABAB1a (GB1a), sequence (Q9Z0U4 29-158): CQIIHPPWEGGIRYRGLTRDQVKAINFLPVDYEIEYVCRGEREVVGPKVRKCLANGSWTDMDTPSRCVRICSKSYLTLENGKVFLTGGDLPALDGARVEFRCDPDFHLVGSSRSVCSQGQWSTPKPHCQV
Molecule B1 returned an inhibition constant Ki of 62 nM.

In the case of B2, the Ki stood at 138 nM. With B3, the Ki came out at 715 nM. As for B4, the figure is 3.8 nM; as for B5, 201 nM. Regarding B6, the Ki was found to be 164 nM. B7 returned a Ki of 190 nM. On to B8, for which the Ki stood at 58.1 nM.

With B9, the Ki is 65.3 nM. In turn, B10 returned a Ki of 36 nM. As to B11, the Ki stood at 5.6 nM.

In the case of B12, the Ki was found to be 336 nM. With B13, the inhibition constant Ki is 461 nM. B14 registered a Ki of 327 nM. Turning to B15, the Ki worked out at 18 nM. The result for B16 reads 906 nM; that for B17, 383 nM; that for B18, 16 nM. The molecule B19 returned a Ki of 1500 nM. In turn, B20 came in with a Ki of 412 nM. B21 displayed a Ki of 208 nM.

Regarding B22, the Ki worked out at 148 nM. As to B23, the Ki turned out to be 142 nM.

Turning to B24, the Ki stood at 4 nM.

The molecule B25 gave a Ki of 338 nM. B26 showed a Ki of 222 nM. Molecule B27 gave a Ki of 345 nM. As for B28, the figure is 182 nM; as for B29, 1300 nM. As for B30, the figure is 3.2 nM. As to B31, the Ki worked out at 11 nM. B32 returned a Ki of 379 nM.

B33: the Ki came to 367 nM. As to B34, the Ki was determined as 95 nM.

Regarding B35, the inhibitory constant (Ki) was found to be 792 nM. B36 showed an inhibition constant Ki of 195 nM. With B37, the Ki amounted to 107 nM. On to B38, for which the Ki amounted to 32 nM. As for B39, the figure is 773 nM; as for B40, 683 nM. As for B41, the figure is 417 nM. The result for B42 reads 673 nM; that for B43, 192 nM. The molecule B44 displayed a Ki of 302 nM. The molecule B45 displayed a Ki of 4.6 nM. For B46, the Ki was 503 nM.
